# Laboratory results taken from patent publication US20260070976A1 (Alector, published 2026).
# Where a chain is given by its changes, count along the chain named.
# B1: X1 (antibody, V domains shown)
# VH: QVQLVQSGAEVKKPGSSVKVSCKASGYNFLHYDVNWVRQAPGQGLEWMGGIIPIFGTANYAQKFQGRVTITADESTSTAYMELSSLRSEDTAVYYCATAVGAGWFDTWGQGTLVTVSS
# VL: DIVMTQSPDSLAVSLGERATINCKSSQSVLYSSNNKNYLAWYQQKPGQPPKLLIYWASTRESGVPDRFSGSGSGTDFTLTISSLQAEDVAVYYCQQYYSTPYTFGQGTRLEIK
# notes: conditioned media in the HEK293F assays
# B2: X11 (antibody, human IgG4, V domains shown)
# VH: B1 VH with H31N, A99G, T107P
# VL: DIVMTQSPDSLAVSLGERATINCKSSQSVYFSENNKNYLAWYQQKPGQPPKLLIYWASTRESGVPDRFSGSGSGTDFTLTISSLQAEDVAVYYCQQYYEEPYTFGQGTRLEIK
# notes: as for B1
# B3: X2 (antibody, V domains shown)
# VH: B1 VH with T107P
# VL: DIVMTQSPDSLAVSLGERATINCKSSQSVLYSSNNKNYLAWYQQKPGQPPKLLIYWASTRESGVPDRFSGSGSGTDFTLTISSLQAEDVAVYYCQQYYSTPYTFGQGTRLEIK
# notes: as for B1
# B4: X18 (antibody, human IgG4, V domains shown)
# VH: B1 VH
# VL: B2 VL with Y30W, S32D, E33P, Y98F
# notes: as for B1
# Target: T1, cell surface PILRA on human monocytes (human, UniProt Q9UKJ1 20-303)
# T1 sequence (Q9UKJ1 20-303): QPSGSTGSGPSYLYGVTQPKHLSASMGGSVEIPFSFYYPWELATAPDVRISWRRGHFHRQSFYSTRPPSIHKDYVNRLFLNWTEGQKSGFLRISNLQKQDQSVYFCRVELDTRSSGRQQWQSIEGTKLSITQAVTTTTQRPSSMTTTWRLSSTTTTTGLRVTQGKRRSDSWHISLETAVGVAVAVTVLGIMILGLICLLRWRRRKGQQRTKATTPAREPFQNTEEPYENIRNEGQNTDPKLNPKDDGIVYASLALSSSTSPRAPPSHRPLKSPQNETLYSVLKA
# Experiment: cell-based or functional assay
row,Hu Mono DR EC50 [µg/mL],Binder
1,0.02,B1
2,0.3,B2
3,0.1,B3
4,~0.02,B4

# Target: T2, recombinant human PILRB (human, UniProt Q9UKJ0 20-191)
# T2 sequence (Q9UKJ0 20-191 limits assumed): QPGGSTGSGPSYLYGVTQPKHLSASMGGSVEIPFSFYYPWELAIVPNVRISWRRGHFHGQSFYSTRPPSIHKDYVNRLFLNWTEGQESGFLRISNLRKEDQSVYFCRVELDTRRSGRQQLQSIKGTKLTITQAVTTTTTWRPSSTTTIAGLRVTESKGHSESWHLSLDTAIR
# Experiment: SPR, Carterra LSA, steady-state fit
# Experimental: (§1) Binding kinetics of human anti-PILRA-IgG4 antibodies were evaluated by surface plasmon resonance (SPR) using a Carterra LSA instrument (Carterra, Salt Lake City, UT). Antibodies were immobilized in duplicate arrays onto an HC30M sensor chip (Carterra) by amine coupling according to the manufacturer's protocol. After priming the immobilized antibodies with HBS-EP+ (Teknova, Hollister, CA, #8022) running buffer with 0.5 mg/mL BSA (MP Biomedicals LLC, #820451), the immobilized antibodies were tested for their ability to bind to recombinant human PILRA (SEQ ID NO:1) and cynomolgus PILRA (SEQ ID NO:120) and to human PILRB (SEQ ID NO:105) and cynomolgus PILRB (SEQ ID NO:121).
# (§2) For binding kinetics analysis, human and cynomolgus PILRA and PILRB analytes were diluted in running buffer to 440 to 470 nM, and diluted 3-fold serially five times, to 1.8 to 1.9 nM, and injected for five minutes over the entire chip using the single channel flow cell to measure association of binding to the immobilized antibodies. Dissociation of the analytes was measured for five minutes, followed by regeneration of the chip with two 30-second injections of 10 mM glycine pH 2.0.
# For the human PILRB interactions, the binding was too weak and heterogenous for kinetic constants to be calculated in this assay. Therefore, steady-state affinities were estimated based on the binding level of each analyte concentration at the end of the injections.
row,Kd [nM],Binder
1,39,B1
2,80,B2
3,53,B3
4,4,B4

# Target: T3, recombinant human PILRA (human, UniProt Q9UKJ1 20-197)
# T3 sequence (Q9UKJ1 20-197 limits assumed): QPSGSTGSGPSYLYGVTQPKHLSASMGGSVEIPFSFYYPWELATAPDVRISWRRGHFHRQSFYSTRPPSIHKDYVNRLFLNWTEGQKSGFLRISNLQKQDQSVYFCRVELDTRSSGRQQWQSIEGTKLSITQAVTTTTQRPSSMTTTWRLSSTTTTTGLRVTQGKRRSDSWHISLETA
# Experiment: SPR, Biacore T200, antibody captured by anti-Fab
# Experimental: (§3) A subset of these antibodies was further evaluated using the Biacore T200 (Cytiva). Anti-PILRA antibodies were diluted to 10 μg/mL and captured using an anti-Fab (Cytiva, #28958325) surface on a CM4 chip, that was prepared by amine coupling according to the manufacturer's protocol. Human PILRA and cynomolgus PILRB were diluted in running buffer to 130 nM, and diluted 4-fold serially, twice, to 8 nM. Human PILRB was similarly diluted from 260 nM to 16 nM. These analytes were injected and allowed 2 minutes of association, followed by dissociation for 5 minutes.
# (§4) Data were analyzed using Biacore evaluation software to generate kinetic constants. The equilibrium dissociation constants (KD) were calculated from the fitted association and dissociation rate constants (k-on and k-off) for each of the anti-PILRA antibodies. These Kn values are indicated with asterisks in Table 8 below.
row,Kd [nM],Binder
1,1.6,B1
2,3.4,B2
3,3.1,B3

# Target: T2, recombinant human PILRB
# Experiment: SPR, Biacore T200, antibody captured by anti-Fab
# Experimental: as §3, §4
row,Kd [nM],Binder
1,128,B1
2,142,B2
3,157,B3

# Target: T3, recombinant human PILRA
# Experiment: SPR, Carterra LSA, antibody amine-coupled, kinetic fit
# Experimental: as §1, §2
row,Kd [nM],Binder
1,2.5,B1
2,4.8,B2
3,3.5,B3
4,1.3,B4

# Target: T4, recombinant cynomolgus PILRA (SEQ ID NO:120) (cynomolgus monkey)
# T4 construct: also called cyno PILRA
# T4 sequence (chain, as listed by the source limits assumed): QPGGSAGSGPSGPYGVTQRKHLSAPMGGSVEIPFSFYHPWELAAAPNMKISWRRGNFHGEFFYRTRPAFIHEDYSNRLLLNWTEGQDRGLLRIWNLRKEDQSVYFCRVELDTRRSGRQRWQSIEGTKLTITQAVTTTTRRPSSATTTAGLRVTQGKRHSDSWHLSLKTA
# Experiment: as above
# Experimental: as §1, §2
row,Kd [nM],Binder
1,1.6,B1
2,0.3,B2
3,1.5,B3
4,0.2,B4

# Target: T5, human PILRA G78 on HEK293F cells (human, UniProt Q9UKJ1 20-303)
# T5 construct: also called hA; G78 OE
# T5 sequence (Q9UKJ1 20-303 R78G): as the sequence (Q9UKJ1 20-303) above, with R59G counted along it
# Experiment: FACS on HEK293F cells, binding on human PILRA (hA) over human PILRB (hB)
# Experimental: (§5) Conditioned media samples containing the tested anti-PILRA antibodies were assessed for binding to HEK293F cells overexpressing human PILRA (hA), human PILRB (hB), and cynomolgus PILRA (cA) by FACS. The conditioned media containing the tested antibodies were incubated with the cells for 30 min at 4° C., washed twice, and then detected with goat anti-human IgG secondary antibody (Alexa Fluor 647) at 1:1000 dilution. The cells were analyzed by flow cytometry on FACS Canto II, and for all cell lines, the reported MFI values were calculated for each conditioned media. These antibodies were evaluated for nonspecific binding using a baculovirus particle (BVP) assay (Jain T., Sun T., Durand S., Hall A., Houston N. R., Nett J. H., Sharkey B., Bobrowicz B., Caffry L, Yu Y., et al. Biophysical properties of the clinical-stage antibody landscape. Proc. Natl. Acad. Sci. USA. 2017; 114:944-949. Doi: 10.1073/pnas.1616408114.). The BVP scores are listed in Table 9, and the higher the score the more nonspecific binding that occurred.
row,hA/hB binding ratio on HEK293F,Binder
1,56.7,B1
2,79.8,B2
3,71.1,B3
4,6.5,B4

# Target: T6, cynomolgus PILRA on HEK293F cells (cynomolgus monkey, UniProt A0A7N9CRU1 20-292)
# T6 sequence (A0A7N9CRU1 entry or part of it): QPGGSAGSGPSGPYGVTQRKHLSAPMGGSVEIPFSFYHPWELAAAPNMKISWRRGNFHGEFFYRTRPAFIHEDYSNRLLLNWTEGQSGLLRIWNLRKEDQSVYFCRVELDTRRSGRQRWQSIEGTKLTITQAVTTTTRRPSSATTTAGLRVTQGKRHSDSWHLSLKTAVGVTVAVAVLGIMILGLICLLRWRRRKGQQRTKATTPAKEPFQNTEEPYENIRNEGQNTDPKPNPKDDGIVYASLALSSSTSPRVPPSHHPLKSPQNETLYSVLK
# Experiment: cA Kd of Table 9; method not stated (Example 8: HEK293F overexpressing cells, FACS)
row,Kd [nM],Binder
1,5.3,B1
2,2.3,B2
3,8.9,B3
4,0.2,B4

# Target: T5, human PILRA G78 on HEK293F cells
# Experiment: hA Kd of Table 9; method not stated (Example 8: HEK293F overexpressing cells, FACS)
row,Kd [nM],Binder
1,0.4,B1
2,1.6,B2
3,0.8,B3
4,0.1,B4

# Target: T7, human PILRB on HEK293F cells (human, UniProt Q9UKJ0 20-227)
# T7 construct: also called hB
# T7 sequence (Q9UKJ0 20-227): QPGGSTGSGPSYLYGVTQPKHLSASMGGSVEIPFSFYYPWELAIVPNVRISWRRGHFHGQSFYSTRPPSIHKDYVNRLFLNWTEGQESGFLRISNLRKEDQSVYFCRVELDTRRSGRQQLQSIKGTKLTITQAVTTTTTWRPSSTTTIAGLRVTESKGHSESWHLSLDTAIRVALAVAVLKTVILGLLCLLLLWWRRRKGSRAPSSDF
# Experiment: hB Kd of Table 9; method not stated (Example 8: HEK293F overexpressing cells, FACS)
row,Kd [nM],Binder
1,126,B1
2,216,B3
3,3.4,B4

# Target: T5, human PILRA G78 on HEK293F cells
# Experiment: flow cytometry; HEK293F cells overexpressing human PILRA, goat anti-human IgG Alexa Fluor 647
# Experimental: as §5
row,EC50 (read off the curve) [µg/mL],Binder
1,~0.3,B1
2,~0.3,B2
3,~0.5,B4

# Target: T6, cynomolgus PILRA on HEK293F cells
# Experiment: flow cytometry; HEK293F cells overexpressing cynomolgus PILRA, goat anti-human IgG Alexa Fluor 647
row,EC50 (read off the curve) [µg/mL],Binder
1,~0.5,B2
2,~0.6,B3

# Target: T1, cell surface PILRA on human monocytes
# Experiment: flow cytometry; Alexa Fluor 647-conjugated antibody on human CD14+ monocytes, Fc receptors blocked, 30 min on ice
# Experimental: (§6) Anti-human PILRA antibodies X0 (PA-29) and its affinity matured variants were tested for their abilities to bind cell surface PILRA on human and cynomolgus monocytes. CD14+ monocytes were isolated from healthy human donors using a RosetteSep Human Monocyte Enrichment Cocktail kit (StemCell). Cynomolgus white blood cells were collected from cynomolgus whole blood. In both human and cynomolgus samples, the Fc receptor on the tested monocytes was blocked and the monocytes were treated with Alexa Fluor 647-conjugated PILRA antibodies for 30 minutes on ice. A dose response curve of antibodies X0 (PA-29), X1, X2, X7, X11, X12, X13, X14, X16, X18, and X20 was tested for binding to cell surface PILRA in human and cynomolgus monocytes, and antibodies bound to PILRA in a dose response manner. In another sample of human donor monocytes, a dose response curve of antibodies X0 (PA-29), X1, X2, X11, X13, X18, X29 (PA-43), and X34 (A6) was tested for binding to cell surface PILRA in human and cynomolgus monocytes, and antibodies bound to PILRA in a dose response manner.
row,EC50 (read off the curve) [µg/mL],Binder
1,~0.2,B1
2,~0.2,B2

# Target: T1, cell surface PILRA on human monocytes
# Experiment: flow cytometry; Alexa Fluor 647-conjugated antibody on human CD14+ monocytes (second donor sample), Fc receptors blocked, 30 min on ice
# Experimental: as §6
row,EC50 (read off the curve) [µg/mL],Binder
1,~0.1,B1
2,~0.1,B2
3,~0.1,B3
4,~0.1,B4

# Target: T5, human PILRA G78 on HEK293F cells
# Experiment: flow cytometry blocking assay; antibody on HEK293F cells overexpressing human PILRA G78, then 5 ug/mL NPDC1 Fc as the blocked ligand; cell-bound NPDC1 Fc read as MFI
# Experimental: A dose response curve of antibodies X0 (PA-29), X1, X2, X7, X11, X12, X13, X14, X16, X18, and X20 was assessed for modulating the binding of Neural Proliferation Differentiation and Control Protein 1 (NPDC1) Fc to 293 cells ectopically expressing human PILRA (HEK293F human PILRA G78 overexpressing cells). Conditioned media samples containing antibodies were incubated with human PILRA overexpressing cells for 30 minutes at 4° C., and then 5 μg/mL NPDC1 Fc was added to this mixture. After 30 minutes of incubation at 4° C., the cells were washed and cell-bound NPDC1 Fc was detected with anti-human IgG Alexa Fluor 647. The cells were analyzed by flow cytometry on FACS Canto II with the percentage of NPDC1 Fc binding in the presence of conditioned media relative to NPDC1 Fc binding alone was calculated. […] All tested antibodies decreased binding of NPDC1 to human PILRA.
row,IC50 (read off the curve) [µg/mL],Binder
1,~0.07,B1
